Assay results from publication PMC10143413, “Proteomic Profiling of Mouse Brain Pyruvate Kinase Binding Proteins: A Hint for Moonlighting Functions of PKM1?” (International Journal of Molecular Sciences, 2023).

Target: T1, Pyruvate kinase PKM1, purified from rabbit skeletal muscle (rabbit, UniProt P11974-1 1-531)
T1 construct: Pyruvate kinase PKM, isoform M1, rabbit skeletal muscle; called full-length PKM1; amine-coupled to a CM5 chip or used as analyte in SPR; also called full-length PKM1; PK1; source: isolated from skeletal muscles of adult rabbits, electrophoretically homogeneous
Test: SPR; Biacore T200, 25 °C; GAPDH, LDH or aldolase A amine-coupled to a CM5 chip, PKM1 as analyte in 0.05 M potassium phosphate buffer pH 7.4, 10 µL/min for 5 min; global fit to the 1:1 binding model
Settings: both partners purified

T1 sequence (P11974 whole entry, canonical isoform): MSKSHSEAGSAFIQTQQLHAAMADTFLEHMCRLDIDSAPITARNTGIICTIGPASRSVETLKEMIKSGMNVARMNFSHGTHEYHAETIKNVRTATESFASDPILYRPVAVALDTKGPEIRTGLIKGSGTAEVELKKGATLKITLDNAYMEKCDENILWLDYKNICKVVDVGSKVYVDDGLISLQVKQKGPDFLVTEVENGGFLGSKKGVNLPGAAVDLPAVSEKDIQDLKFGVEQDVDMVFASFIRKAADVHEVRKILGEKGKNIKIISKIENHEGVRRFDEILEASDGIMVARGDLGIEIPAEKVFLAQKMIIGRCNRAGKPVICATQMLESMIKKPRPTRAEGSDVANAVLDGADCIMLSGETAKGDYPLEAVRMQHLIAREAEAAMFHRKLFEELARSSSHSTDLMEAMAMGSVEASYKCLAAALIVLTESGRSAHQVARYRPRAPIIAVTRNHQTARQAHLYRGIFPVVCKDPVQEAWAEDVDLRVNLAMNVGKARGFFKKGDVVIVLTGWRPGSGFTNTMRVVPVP

Kd: 1060 nM
koff: 0.00162 s⁻¹
kon: 1530 M⁻¹ s⁻¹
B1: Glyceraldehyde 3-phosphate dehydrogenase, purified from rabbit skeletal muscle (enzyme)
chain: not shown
notes: Glyceraldehyde-3-phosphate dehydrogenase, rabbit skeletal muscle; also called GAPDH; GAPD; source: isolated from skeletal muscles of adult rabbits, electrophoretically homogeneous
